In patent US20260116960A1 (SHANGHAI HONGCHENG BIOPHARMACEUTICAL, published 2026):

Legend:
[1] = target: T1, human PD-1 on the cell surface (human, UniProt Q15116 25-288); experiment: flow cytometry on activated human T cells (CD3+), PE anti-human IgG Fc
T1 construct: whole, on cells; also called cell surface PD-1
Description: Human peripheral blood mononuclear cells (PBMCs, Miaoshun (Shanghai) Biotechnology Co., Ltd., Catalog No.: A19K154025) were rapidly thawed in a 37° C. water bath, resuspended in T cell isolating solution, and counted. After centrifugation at 400 g for 10 minutes, the supernatant was removed and the cells were resuspended to 5×10⁷ cells/mL with T cell separation buffer. T cells were isolated according to the procedure of a T cell isolation kit (Stemcell, Catalog No.: 19051), and the obtained T cells were resuspended in culture medium. The cells were counted using NucleoCounter NC-200 and the T cell density was adjusted to approximately 1×10⁶ cells/mL. Dynabeads containing anti-CD3 and anti-CD28 antibodies (Invitrogen™, Catalog No.: 11132D) and 10 ng/ml hIL-2 (Peprotech, Catalog No.: 200-02) were added and cultured in a 37° C., 5% CO₂ incubator for 3 days. After removing Dynabeads and supernatant, the activated T cells were resuspended in FACS buffer. The cell density was adjusted to about 1×10⁶ cells/mL, and 100 μL of cell solution was added into a 96-well U-bottom plate, 1×10⁵ cells/well. After centrifugation at 500 g for 5 minutes, the supernatant was discarded and 100 μL of the trispecific antibody solution of the present application serially diluted 3-fold with FACS buffer was added in triplicate, with a starting concentration of 200 nM. After mixing, incubated at 4° C. for 60 minutes. After centrifugation and washing three times with FACS buffer, 100 μL/well of PE anti-human IgG Fc (Biolegend, Catalog No.: 366903) was added and incubated at 4° C. for 50 minutes. After washing the plate three times with FACS buffer, 100 μL/well of BV421 anti-human CD3 antibody (OKT3) (Biolegend, Catalog No.: 317344) was added and incubated at 4° C. for 50 minutes. After washing the plate three times with FACS buffer, 70 μL/well of PBS solution was added to resuspend the cells, and the fluorescent signal on CD3 T cells was detected on a flow cytometer (BD Cellesta). The binding activity was fitted using a four-parameter model, and the EC₅₀ value of each antibody binding to T cells was calculated.

[2] = target: T2, human CTLA-4 protein (Acro, Catalog No. CT4-H52H9) (human, UniProt P16410 36-161); experiment: BLI (Octet RED96e), antibody on AHC sensor, antigen as analyte 6.25-100 nM, 1:1 model
T2 construct: Bought protein
T2 sequence (P16410 36-161 limits assumed): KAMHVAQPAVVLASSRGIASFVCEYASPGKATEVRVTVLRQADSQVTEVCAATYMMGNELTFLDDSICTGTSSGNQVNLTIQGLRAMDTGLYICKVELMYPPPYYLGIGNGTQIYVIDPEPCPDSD
Description: Octet® RED96e (ForteBio) was used to detect the affinity of trispecific antibodies to human PD-1, CTLA-4 and VEGFA. The specific method was as follows: the AHC Sensor was immersed in PBST (PBS containing 0.02% Tween) buffer for 10 minutes to activate the Sensor. The ligand (antibody to be tested) was diluted to 5 μg/mL with PBST buffer. […] The diluted ligand and analyte were added to the corresponding wells at 200 μL/well in triplicate. Program parameter settings: loading: 180 s, association: 180 s, dissociation: 600 s, regeneration: Gly-HCl pH 1.5, 30s, regeneration 3 times. […] Curve fit acceptance criteria: Full R\hat{ }2≥0.95.

[3] = target: T2, human CTLA-4 protein (Acro, Catalog No. …); experiment: ELISA, plate coated with human CTLA-4 protein
[4] = target: T3, human CTLA-4 on the cell surface (human, UniProt P16410 36-223); experiment: flow cytometry, CHO-hCTLA-4 cells, batch FACS#3
T3 construct: whole, on cells; also called CHO-hCTLA-4 cells; CHOK1-hCTLA4 cells
T3 sequence (P16410 36-223): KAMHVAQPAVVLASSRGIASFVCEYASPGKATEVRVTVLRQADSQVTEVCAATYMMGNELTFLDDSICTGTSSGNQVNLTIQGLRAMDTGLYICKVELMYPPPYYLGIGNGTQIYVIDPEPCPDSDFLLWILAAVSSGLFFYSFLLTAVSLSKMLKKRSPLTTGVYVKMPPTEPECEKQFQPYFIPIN

[5] = target: T3, human CTLA-4 on the cell surface; experiment: flow cytometry, CHO-hCTLA-4 cells, batch FACS#4
[6] = target: T4, human VEGF165-his protein (Acro, Catalog No. VE5-H5248) (human, UniProt P15692-4 27-191); experiment: ELISA, plate coated with human VEGF165-his
T4 construct: Bought protein; also called hVEGF165-His; VEGFA; not shown: his tag
T4 sequence (P15692 other isoform, or with tags, fused parts or gaps limits assumed): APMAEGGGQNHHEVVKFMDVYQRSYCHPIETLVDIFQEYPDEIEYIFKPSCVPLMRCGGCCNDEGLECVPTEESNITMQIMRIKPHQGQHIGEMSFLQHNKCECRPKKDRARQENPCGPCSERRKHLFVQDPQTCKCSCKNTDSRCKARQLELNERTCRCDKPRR
Description: (§1) ELISA was used to determine the activity of the trispecific antibodies binding to the PD-1 protein: 1 μg/mL human PD-1 protein (Acro, Catalog No.: PD1-H5221) was used to coat a high-adsorption 96-well ELISA plate and incubated at 4° C. overnight. On the next day, the plate was washed three times with PBST solution and blocked with 1% BSA-PBS solution at 37° C. for 1 hour. At the same time, 3-fold gradient dilutions of the antibody were prepared with 1% BSA-PBS solution, with a starting concentration of 10 nM. The antibodies of each gradient concentration were added to the blocked 96-well ELISA plate at 100 µL/well in triplicate and incubated at 37° C. for 1 hour. The plate was then washed three times with 0.05% PBST solution, and 100 μL/well of HRP-labeled secondary antibody (Sigma, Catalog No.: A0170) diluted at 1:5000 was added to the ELISA plate and incubated at 37° C. for 1 hour. The plate was washed three times with 0.05% PBST solution and developed with TMB. The absorbance of the 96-well ELISA plate at 450 nm was detected by an ELISA reader. The OD₄₅₀ value was fitted using a four-parameter model to calculate the EC₅₀ value of each antibody binding to PD-1.
The binding activity of the trispecific antibodies to VEGFA protein was detected by ELISA method as described in Section 2.1. The used human VEGF165-his protein was purchased from Acro, Catalog No.: VE5-H5248.

[7] = target: T5, human PD-1 protein (Acro, Catalog No. PD1-H5221) (human, UniProt Q15116 25-167); experiment: ELISA, plate coated with human PD-1 protein
T5 construct: Bought protein; also called human PD1-his; not shown: his tag
T5 sequence (Q15116 25-167 limits assumed): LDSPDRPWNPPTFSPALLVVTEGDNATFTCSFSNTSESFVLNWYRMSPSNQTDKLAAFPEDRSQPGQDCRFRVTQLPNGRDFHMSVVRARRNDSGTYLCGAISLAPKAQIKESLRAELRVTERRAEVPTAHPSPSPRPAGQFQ
Description: as §1

[8] = target: human PD-1 protein (Acro, PD1-H5257) (human, UniProt Q15116 25-167); experiment: competitive ELISA, PD-1 coated, biotin-PD-L1 as labelled ligand
human PD-1 protein (Acro, PD1-H5257), sequence (Q15116 25-167 limits assumed): as above
Description: The next day, the plate was washed three times with PBS solution and blocked with 1% BSA-PBS solution at 37° C. for 1 hour. […] 100 μL of the antibody-protein mixture was added to each well of the blocked 96-well ELISA plate and incubated at 37° C. for 1 hour. After washing four times with PBST, 100 μL of Strep-HRP (BD, Catalog No. 554066) diluted 1:5000 was added to each well of the ELISA plate and incubated at 37° C. for 1 hour. After washing 4 times with PBST, TMB was used for color development. The absorbance at 450 nm and 630 nm was detected by a microplate reader, and OD450-OD630 was calculated. The fluorescence intensity was fitted using a four-parameter model, and the IC₅₀ value of the blocking activity of each antibody was calculated.

[9] = target: T1, human PD-1 on the cell surface; experiment: flow cytometry competition, 293T-hPD-1 cells, biotin-human PD-L1
Description: 50 μL of antibody solution serially diluted 3-fold in FACS buffer was added in triplicate, with a starting concentration of 200 nM. After mixing, incubated at 4° C. for 60 minutes. After washing three times with FACS buffer, 100 μL/well of 1:800 diluted PE Streptavidin was added and incubated at 4° C. for 50 min. After washing three times with FACS buffer, 150 μL/well of PBS was added to resuspend the cells, and the fluorescence signal was detected on a flow cytometer (BECKMAN COULTER cytoFLEX). The four-parameter model was used to fit the binding activity and the IC₅₀ value of the blocking activity of each antibody was calculated.

[10] = target: T3, human CTLA-4 on the cell surface; experiment: flow cytometry competition, 293T-hPD-1-hCTLA-4 cells (PD-1 co-expressed), biotin-human CD80
Description: PD-1 and CTLA-4 are co-expressed on functionally exhausted T cells in the tumor microenvironment, and the expression level of PD-1 is higher than that of CTLA-4. […] 200 μL of the cells were added to a 96-well U-bottom plate, approximately 1.4×10⁵ cells/well. After centrifugation at 300 g for 5 minutes, the supernatant was discarded. […] After washing three times with FACS buffer, 100 μL/well of 1:800 diluted PE Streptavidin was added and incubated at 4° C. for 50 min. After washing three times with FACS buffer, 150 μL/well of PBS was added to resuspend the cells, and the fluorescence signal was detected on a flow cytometer (BECKMAN COULTER cytoFLEX). The binding activity was fitted using a four-parameter model, and the IC₅₀ value of the blocking activity of each antibody was calculated.

T1 sequence (Q15116 25-288): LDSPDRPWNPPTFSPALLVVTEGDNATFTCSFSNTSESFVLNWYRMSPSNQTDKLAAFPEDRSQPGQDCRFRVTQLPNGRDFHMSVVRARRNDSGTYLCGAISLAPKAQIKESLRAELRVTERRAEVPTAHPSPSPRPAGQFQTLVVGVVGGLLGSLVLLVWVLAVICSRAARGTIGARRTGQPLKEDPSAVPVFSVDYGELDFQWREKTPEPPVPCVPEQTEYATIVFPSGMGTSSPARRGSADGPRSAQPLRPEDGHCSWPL

B1: camrelizumab (antibody, V domains shown)
VH: EVQLVESGGGLVQPGGSLRLSCAASGFTFSSYMMSWVRQAPGKGLEWVATISGGGANTYYPDSVKGRFTISRDNAKNSLYLQMNSLRAEDTAVYYCARQLYYFDYWGQGTTVTVSS
VL: DIQMTQSPSSLSASVGDRVTITCLASQTIGTWLTWYQQKPGKAPKLLIYTATSLADGVPSRFSGSGSGTDFTLTISSLQPEDFATYYCQQVYSIPWTFGGGTKVEIK
- EC50 [1]: 473 pM

B2: 202F1 (VHH)
VHH: EVQLLESGGGLVQPGGSLRLSCAASGSIFSINHMAWYRQAPGKQRELVAGVNSRGTTNYVDSVKGRFTISRDNSKNTLYLQMNSLRAEDTAVYYCRALGGAVAAWGQGTLVTVSS
notes: also called anti-CTLA-4 nanobody (202F1)
- Kd [2]: 203 pM

B3: 202F1-hIgG1 (antibody, V domains shown)
VH: EVQLLESGGGLVQPGGSLRLSCAASGSIFSINHMAWYRQAPGKQRELVAGVNSRGTTNYVDSVKGRFTISRDNSKNTLYLQMNSLRAEDTAVYYCRALGGAVAAWGQGTLVTVSS
notes: also called anti-CTLA-4 nanobody 202F1 with hIgG1 constant region
- EC50 [3]: 78 pM
- EC50 [4]: 1710 pM
- EC50 [5]: 1050 pM

B4: sintilimab (antibody, V domains shown)
VH: QVQLVQSGAEVKKPGSSVKVSCKASGGTFSSYAISWVRQAPGQGLEWMGLIIPMFDTAGYAQKFQGRVAITVDESTSTAYMELSSLRSEDTAVYYCARAEHSSTGTFDYWGQGTLVTVSS
VL: DIQMTQSPSSVSASVGDRVTITCRASQGISSWLAWYQQKPGKAPKLLISAASSLQSGVPSRFSGSGSGTDFTLTISSLQPEDFATYYCQQANHLPFTFGGGTKVEIK
- EC50 [1]: 231 pM

B5: HC010-F14 (trispecific antibody, human IgG4 S228P)
heavy 1: EVQLVESGGGLVQPGGSLRLSCAASGFTFSSYGMSWVRQAPGKCLEWVSTISGGGRDTYYPDSVKGRFTISRDNSKNTLYLQMNSLRAEDTAVYYCARQNGITWFADWGQGTLVTVSSGGGGSGGGGSGGGGSGGGGSDIQMTQSPSSLSASVGDRVTITCRASESVDNYGISFMNWYQQKPGKAPKLLIYAASNQGSGVPSRFSGSGSGTDFTLTISSLQPEDFATYYCQQSKEVPWTFGCGTKVEIKGGGGSGGGGSGGGGSGGGGSESKYGPPCPPCPAPEFLGGPSVFLFPPKPKDTLMISRTPEVTCVVVDVSQEDPEVQFNWYVDGVEVHNAKTKPREEQFNSTYRVVSVLTVLHQDWLNGKEYKCKVSNKGLPSSIEKTISKAKGQPREPQVYTLPPCQEEMTKNQVSLWCLVKGFYPSDIAVEWESNGQPENNYKTTPPVLDSDGSFFLYSRLTVDKSRWQEGNVFSCSVMHEALHNHYTQKSLSLSLGAGGGGSGGGGSGGGGSGGGGSEVQLVESGGGLVQPGGSLRLSCAASGYTFTNYGMNWVRQAPGKCLEWVGWINTYTGEPTYAADFKRRFTFSLDTSKSTAYLQMNSLRAEDTAVYYCAKYPHYYGSSHWYFDVWGQGTLVTVSSGGGGSGGGGSGGGGSGGGGSDIQMTQSPSSLSASVGDRVTITCSASQDISNYLNWYQQKPGKAPKVLIYFTSSLHSGVPSRFSGSGSGTDFTLTISSLQPEDFATYYCQQYSTVPWTFGCGTKVEIK
heavy 2: EVQLLESGGGLVQPGGSLRLSCAASGSIFSINHMAWYRQAPGKQRELVAGVNSRGTTNYVDSVKGRFTISRDNSKNTLYLQMNSLRAEDTAVYYCRALGGAVAAWGQGTLVTVSSGGGGSGGGGSGGGGSGGGGSESKYGPPCPPCPAPEFLGGPSVFLFPPKPKDTLMISRTPEVTCVVVDVSQEDPEVQFNWYVDGVEVHNAKTKPREEQFNSTYRVVSVLTVLHQDWLNGKEYKCKVSNKGLPSSIEKTISKAKGQPREPQVCTLPPSQEEMTKNQVSLSCAVKGFYPSDIAVEWESNGQPENNYKTTPPVLDSDGSFFLVSRLTVDKSRWQEGNVFSCSVMHEALHNRFTQKSLSLSLGAGGGGSGGGGSGGGGSGGGGSEVQLVESGGGLVQPGGSLRLSCAASGYTFTNYGMNWVRQAPGKCLEWVGWINTYTGEPTYAADFKRRFTFSLDTSKSTAYLQMNSLRAEDTAVYYCAKYPHYYGSSHWYFDVWGQGTLVTVSSGGGGSGGGGSGGGGSGGGGSDIQMTQSPSSLSASVGDRVTITCSASQDISNYLNWYQQKPGKAPKVLIYFTSSLHSGVPSRFSGSGSGTDFTLTISSLQPEDFATYYCQQYSTVPWTFGCGTKVEIK
notes: also called H010-F14
- EC50 [6]: 96 pM
- EC50 [7]: 472 pM
- EC50 [3]: 734 pM
- IC50 [8]: 2410 pM
- IC50 [9]: > 200000 pM
- IC50 [10]: 116 pM
